Patent US20250179187A1, “ANTI PD-L2 ANTIBODY” (REJUVERON SENESCENCE THERAPEUTICS AG, priority 2022, published 2025)

T1: human PD-L2 antigen (Homo sapiens, UniProt Q9BQ51)
T1 sequence (Q9BQ51 20-273): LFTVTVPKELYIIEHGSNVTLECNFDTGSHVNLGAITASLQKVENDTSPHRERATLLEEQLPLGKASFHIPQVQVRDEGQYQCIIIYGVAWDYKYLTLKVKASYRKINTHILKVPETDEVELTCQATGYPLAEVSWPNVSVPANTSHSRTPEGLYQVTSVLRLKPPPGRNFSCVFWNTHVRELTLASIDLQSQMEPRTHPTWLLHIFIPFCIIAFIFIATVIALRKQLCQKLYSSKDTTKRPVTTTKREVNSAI

B1: VH1/VK1: humanized anti-PD-L2 variant; SEQ ID NO: 2/SEQ ID NO: 10 (antibody, V domains shown)
VH: QVQLVQSGAELKKPGSSVKVSCKASGYAFSNYFIEWVKQPPGKGLEWIGLNIPGSGGSNYAEKFKGRATITADKSTSTAYMELSSLTSEDSAVYFCARRRLPPDWYFDVWGQGTTVTVSS
VL: DVVMTQSPLSLPVTLGQPASISCRSSQSLVHSDGNTYLHWYQQKPGQPPKLLIYKVSNRFSGVPDRFSGSGSGTDFTLKISRVEAEDVGVYFCSQSTHVPWTFGGGTKVEIK
B2: VH1/VK3: humanized anti-PD-L2 variant; SEQ ID NO: 2/SEQ ID NO: 12 (antibody, V domains shown)
VH: QVQLVQSGAELKKPGSSVKVSCKASGYAFSNYFIEWVKQPPGKGLEWIGLNIPGSGGSNYAEKFKGRATITADKSTSTAYMELSSLTSEDSAVYFCARRRLPPDWYFDVWGQGTTVTVSS
VL: DVVMTQSPLSLPVTLGQPASISCRSSQSLVHSGGNTYLHWYQQKPGQPPKLLIYKVSNRFSGVPDRFSGSGSGTDFTLKISRVEAEDVGVYFCSQSTHVPWTFGGGTKVEIK
B3: VH4/VK3: humanized anti-PD-L2 variant; SEQ ID NO: 5/SEQ ID NO: 12 (antibody, V domains shown)
VH: QVQLVQSGAEVKKPGSSVKVSCKASGYAFSNYFIEWVKQPPGKGLEWIGLNIPGSGGSNYAEKFKGRVTITADKSTSTAYMELSSLRSEDTAVYYCARRRLPPDWYFDVWGQGTTVTVSS
VL: DVVMTQSPLSLPVTLGQPASISCRSSQSLVHSGGNTYLHWYQQKPGQPPKLLIYKVSNRFSGVPDRFSGSGSGTDFTLKISRVEAEDVGVYFCSQSTHVPWTFGGGTKVEIK
B4: VH8/VK1: humanized anti-PD-L2 variant; SEQ ID NO: 8/SEQ ID NO: 10 (antibody, V domains shown)
VH: QVQLVQSGAEVKKPGSSVKVSCKASGYAFSNYFIEWVKQPPGKGLEWIGLNIPGSGGSNYAEKFKGRATITADKSTSTAYMELSSLRSEDTAVYYCARRRLPPDWYFDVWGQGTTVTVSS
VL: DVVMTQSPLSLPVTLGQPASISCRSSQSLVHSDGNTYLHWYQQKPGQPPKLLIYKVSNRFSGVPDRFSGSGSGTDFTLKISRVEAEDVGVYFCSQSTHVPWTFGGGTKVEIK
B5: VH7/VK3: humanized anti-PD-L2 variant; SEQ ID NO: 7/SEQ ID NO: 12 (antibody, V domains shown)
VH: QVQLVQSGAELKKPGSSVKVSCKASGYAFSNYFIEWVKQPPGKGLEWIGLNIPGSGGSNYAEKFKGRATITADKSTSTAYMELSSLRSEDTAVYYCARRRLPPDWYFDVWGQGTTVTVSS
VL: DVVMTQSPLSLPVTLGQPASISCRSSQSLVHSGGNTYLHWYQQKPGQPPKLLIYKVSNRFSGVPDRFSGSGSGTDFTLKISRVEAEDVGVYFCSQSTHVPWTFGGGTKVEIK
B6: VH8/VK3: humanized anti-PD-L2 variant; SEQ ID NO: 8/SEQ ID NO: 12 (antibody, V domains shown)
VH: QVQLVQSGAEVKKPGSSVKVSCKASGYAFSNYFIEWVKQPPGKGLEWIGLNIPGSGGSNYAEKFKGRATITADKSTSTAYMELSSLRSEDTAVYYCARRRLPPDWYFDVWGQGTTVTVSS
VL: DVVMTQSPLSLPVTLGQPASISCRSSQSLVHSGGNTYLHWYQQKPGQPPKLLIYKVSNRFSGVPDRFSGSGSGTDFTLKISRVEAEDVGVYFCSQSTHVPWTFGGGTKVEIK
B7: VH3/VK3: humanized anti-PD-L2 variant; SEQ ID NO: 4/SEQ ID NO: 12 (antibody, V domains shown)
VH: QVQLVQSGAEVKKPGSSVKVSCKASGYAFSNYFIEWVKQPPGKGLEWIGLNIPGSGGSNYAEKFKGRVTITADKSTSTAYMELSSLRSEDSAVYFCARRRLPPDWYFDVWGQGTTVTVSS
VL: DVVMTQSPLSLPVTLGQPASISCRSSQSLVHSGGNTYLHWYQQKPGQPPKLLIYKVSNRFSGVPDRFSGSGSGTDFTLKISRVEAEDVGVYFCSQSTHVPWTFGGGTKVEIK
B8: VH2/VK1: humanized anti-PD-L2 variant; SEQ ID NO: 3/SEQ ID NO: 10 (antibody, V domains shown)
VH: QVQLVQSGAEVKKPGSSVKVSCKASGYAFSNYFIEWVKQPPGKGLEWIGLNIPGSGGSNYAEKFKGRATITADKSTSTAYMELSSLRSEDSAVYFCARRRLPPDWYFDVWGQGTTVTVSS
VL: DVVMTQSPLSLPVTLGQPASISCRSSQSLVHSDGNTYLHWYQQKPGQPPKLLIYKVSNRFSGVPDRFSGSGSGTDFTLKISRVEAEDVGVYFCSQSTHVPWTFGGGTKVEIK
B9: VH2/VK2: humanized anti-PD-L2 variant; SEQ ID NO: 3/SEQ ID NO: 11 (antibody, V domains shown)
VH: QVQLVQSGAEVKKPGSSVKVSCKASGYAFSNYFIEWVKQPPGKGLEWIGLNIPGSGGSNYAEKFKGRATITADKSTSTAYMELSSLRSEDSAVYFCARRRLPPDWYFDVWGQGTTVTVSS
VL: DVVMTQSPLSLPVTLGQPASISCRSSQSLVHSDGNTYLHWYQQKPGQPPKLLIYKVSNRFSGVPDRFSGSGSGTDFTLKISRVEAEDVGVYYCSQSTHVPWTFGGGTKVEIK
B10: VH3/VK1: humanized anti-PD-L2 variant; SEQ ID NO: 4/SEQ ID NO: 10 (antibody, V domains shown)
VH: QVQLVQSGAEVKKPGSSVKVSCKASGYAFSNYFIEWVKQPPGKGLEWIGLNIPGSGGSNYAEKFKGRVTITADKSTSTAYMELSSLRSEDSAVYFCARRRLPPDWYFDVWGQGTTVTVSS
VL: DVVMTQSPLSLPVTLGQPASISCRSSQSLVHSDGNTYLHWYQQKPGQPPKLLIYKVSNRFSGVPDRFSGSGSGTDFTLKISRVEAEDVGVYFCSQSTHVPWTFGGGTKVEIK
B11: VH3/VK2: humanized anti-PD-L2 variant; SEQ ID NO: 4/SEQ ID NO: 11 (antibody, V domains shown)
VH: QVQLVQSGAEVKKPGSSVKVSCKASGYAFSNYFIEWVKQPPGKGLEWIGLNIPGSGGSNYAEKFKGRVTITADKSTSTAYMELSSLRSEDSAVYFCARRRLPPDWYFDVWGQGTTVTVSS
VL: DVVMTQSPLSLPVTLGQPASISCRSSQSLVHSDGNTYLHWYQQKPGQPPKLLIYKVSNRFSGVPDRFSGSGSGTDFTLKISRVEAEDVGVYYCSQSTHVPWTFGGGTKVEIK
B12: VH0/VK1: anti-PD-L2 variant on hIgG1; SEQ ID NO: 1/SEQ ID NO: 10 (antibody, V domains shown)
VH: QVQLQQSGAELVRPGTSVKVSCKASGYAFSNYFIEWVKQRPGQGLEWIGLNIPGSGGSNYAEKFKGKATLTADKSSSTAYMQLSSLTSEDSAVYFCARRRLPPDWYFDVWGTGTTVTVSS
VL: DVVMTQSPLSLPVTLGQPASISCRSSQSLVHSDGNTYLHWYQQKPGQPPKLLIYKVSNRFSGVPDRFSGSGSGTDFTLKISRVEAEDVGVYFCSQSTHVPWTFGGGTKVEIK
modifications: human IgG1 constant regions
B13: VH2/VK3: humanized anti-PD-L2 variant; SEQ ID NO: 3/SEQ ID NO: 12 (antibody, V domains shown)
VH: QVQLVQSGAEVKKPGSSVKVSCKASGYAFSNYFIEWVKQPPGKGLEWIGLNIPGSGGSNYAEKFKGRATITADKSTSTAYMELSSLRSEDSAVYFCARRRLPPDWYFDVWGQGTTVTVSS
VL: DVVMTQSPLSLPVTLGQPASISCRSSQSLVHSGGNTYLHWYQQKPGQPPKLLIYKVSNRFSGVPDRFSGSGSGTDFTLKISRVEAEDVGVYFCSQSTHVPWTFGGGTKVEIK
B14: VH7/VK1: humanized anti-PD-L2 variant; SEQ ID NO: 7/SEQ ID NO: 10 (antibody, V domains shown)
VH: QVQLVQSGAELKKPGSSVKVSCKASGYAFSNYFIEWVKQPPGKGLEWIGLNIPGSGGSNYAEKFKGRATITADKSTSTAYMELSSLRSEDTAVYYCARRRLPPDWYFDVWGQGTTVTVSS
VL: DVVMTQSPLSLPVTLGQPASISCRSSQSLVHSDGNTYLHWYQQKPGQPPKLLIYKVSNRFSGVPDRFSGSGSGTDFTLKISRVEAEDVGVYFCSQSTHVPWTFGGGTKVEIK
B15: VH4/VK1: humanized anti-PD-L2 variant; SEQ ID NO: 5/SEQ ID NO: 10 (antibody, V domains shown)
VH: QVQLVQSGAEVKKPGSSVKVSCKASGYAFSNYFIEWVKQPPGKGLEWIGLNIPGSGGSNYAEKFKGRVTITADKSTSTAYMELSSLRSEDTAVYYCARRRLPPDWYFDVWGQGTTVTVSS
VL: DVVMTQSPLSLPVTLGQPASISCRSSQSLVHSDGNTYLHWYQQKPGQPPKLLIYKVSNRFSGVPDRFSGSGSGTDFTLKISRVEAEDVGVYFCSQSTHVPWTFGGGTKVEIK
B16: VH1/VK2: humanized anti-PD-L2 variant; SEQ ID NO: 2/SEQ ID NO: 11 (antibody, V domains shown)
VH: QVQLVQSGAELKKPGSSVKVSCKASGYAFSNYFIEWVKQPPGKGLEWIGLNIPGSGGSNYAEKFKGRATITADKSTSTAYMELSSLTSEDSAVYFCARRRLPPDWYFDVWGQGTTVTVSS
VL: DVVMTQSPLSLPVTLGQPASISCRSSQSLVHSDGNTYLHWYQQKPGQPPKLLIYKVSNRFSGVPDRFSGSGSGTDFTLKISRVEAEDVGVYYCSQSTHVPWTFGGGTKVEIK

Target: T1, human PD-L2 antigen
Experiment: Single cycle kinetics on Biacore 8K, binding to human PD-L2 antigen
Settings: Table 2, cell culture supernatants
Text: Table 2: Single cycle kinetic parameters of chimeric (VH0/VK0) and humanized variants (tested as cell culture supernatants) binding to human PD-L2 antigen as determined using the Biacore 8K. As used herein, the term “KD” is intended to refer to the dissociation equilibrium constant of a particular antibody-antigen interaction, ka is the binding rate constant and kd is the dissociation rate constant. The binding affinity of antibodies of the disclosed invention may be measured or determined by standard antibody-antigen assays. The relative KD was calculated by dividing the KD of the humanized variant by that of the VH0/VK0 assayed in the same experiment.

| Molecule | kd [s⁻¹] |
| --- | --- |
| B1 | 0.00011 |
| B2 | 0.000365 |
| B3 | 0.000466 |
| B4 | 0.00012 |
| B5 | 0.000344 |
| B6 | 0.000388 |
| B7 | 0.000497 |
| B8 | 0.000119 |
| B9 | 0.000122 |
| B10 | 0.000128 |
| B11 | 0.000132 |
| B12 | 9.88e-05 |
| B13 | 0.000414 |
| B14 | 0.000113 |
| B15 | 0.000125 |
| B16 | 0.000116 |
